Read-outs that look alike come from different tables or passages of the source. Values belong to the binder of their own block, whether it stands above or below them.
B5: human RAD54B N-terminal fragment, amino acid residues 26-225 (RAD54B_(26–225)) (domain or fragment, UniProt Q9Y620 26-225, looked up)
chain: SNPGLNEEITKLNPDIKLFEGVAINNTFLPSQNDLRICSLNLPSEESTREINNRDNCSGKYCFEAPTLATLDPPHTVHSAPKEVAVSKEQEEKSDSLVKYFSVVWCKPSKKKHKKWEGDAVLIVKGKSFILKNLEGKDIGRGIGYKFKELEKIEEGQTLMICGKEIEVMGVISPDDFSSGRCFQLGGGSTAISHSSQVAR

How the values were obtained:
[1] = target: T1, RAD54B26-225 (Homo sapiens, UniProt Q9Y620 26-225); test: EMSA
T1 sequence: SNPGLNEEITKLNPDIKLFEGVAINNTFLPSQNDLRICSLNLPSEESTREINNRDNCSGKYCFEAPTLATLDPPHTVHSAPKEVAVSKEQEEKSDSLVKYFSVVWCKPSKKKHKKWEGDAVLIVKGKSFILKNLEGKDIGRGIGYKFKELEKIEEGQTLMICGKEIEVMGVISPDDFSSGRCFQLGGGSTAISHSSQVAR

[2] = target: T1, RAD54B26-225; test: EMSA; remark: listed apart in the source
[3] = target: T1, RAD54B26-225; test: EMSA; remark: listed apart in the source
[4] = target: T1, RAD54B26-225; test: EMSA; remark: listed apart in the source
[5] = target: B5; test: pull-down
[6] = target: the molecule itself; test: SEC
[7] = target: T2, DMC1 (UniProt Q14565 1-340); test: pull-down
T2 sequence (looked up): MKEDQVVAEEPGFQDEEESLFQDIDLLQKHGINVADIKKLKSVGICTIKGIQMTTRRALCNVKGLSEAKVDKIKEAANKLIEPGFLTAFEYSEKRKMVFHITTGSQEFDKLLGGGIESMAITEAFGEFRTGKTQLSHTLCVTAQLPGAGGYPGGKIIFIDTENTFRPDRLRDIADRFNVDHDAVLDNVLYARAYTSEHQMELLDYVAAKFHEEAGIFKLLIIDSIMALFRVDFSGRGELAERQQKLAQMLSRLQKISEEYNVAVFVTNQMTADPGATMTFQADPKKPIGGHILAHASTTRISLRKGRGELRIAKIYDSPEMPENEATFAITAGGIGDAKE

B1: dsDNA (oligos 2/2a) (dsDNA)
DNA 1: TGGGTCAACGTGGGCAAAGATGTCCTAGCAATGTAATCGTCTATGACGTT
DNA 2: AACGTCATAGACGATTACATTGCTAGGACATCTTTGCCCACGTTGACCCA
- binding result [1]: binds

B2: 5'-flapped DNA (oligos 2/8/15) (structured_DNA)
DNA 1: TGGGTCAACGTGGGCAAAGATGTCCTAGCAATGTAATCGTCTATGACGTT
DNA 2: CAACGTCATAGACGATTACATTGCTAATCACTGGCACTGGTAGAATTCGGC
DNA 3: TGCCGAATTCTACCAGTGCCAGTGAT
- binding result [2]: binds

B3: 3'-PX junction (oligos 2/6/7/10) (structured_DNA)
DNA 1: TGGGTCAACGTGGGCAAAGATGTCCTAGCAATGTAATCGTCTATGACGTT
DNA 2: GTCGGATCCTCTAGACAGCTCCATGATCACTGGCACTGGTAGAATTCGGC
DNA 3: CAACGTCATAGACGATTACATTGCTACATGGAGCTGTCTAGAGGATCCGA
DNA 4: GGACATCTTTGCCCACGTTGACCC
- binding result [3]: binds

Binder: AAAAAAAAAAAAAAAAAAAAAAAAAAAAAAAAAAAAAAAAAAAA (ssDNA) [polyA 44-mer]
- binding result [4]: binds

- binding result [5]: binds
B4: GST-fused DMC1 deletion mutant, amino acid residues 153-214 (fragment VI) (domain or fragment, UniProt Q14565 153-214, looked up)
chain: GGKIIFIDTENTFRPDRLRDIADRFNVDHDAVLDNVLYARAYTSEHQMELLDYVAAKFHEEA

Binder: B5
- stoichiometry N [6]: 2
- binding result [7]: binds

- binding result [5]: binds
Binder: ASTTRISLRKGRGELRIAKIYDSPEMPENEATFAITAGGIGDAKE (domain or fragment, UniProt Q14565 296-340, looked up) [GST-fused DMC1 deletion mutant, amino acid residues 296-340 (fragment X)]

Source: PMC2553597 (Nucleic Acids Research, 2008)
